Measurements published in publication PMC2830701 (The EMBO Journal, 2009).

Biological target: Bovine Hsc70 (1–554) (bovine, UniProt P19120 1-554)
Assay: co-sedimentation

Bovine Hsc70 (1–554), sequence (P19120 1-554): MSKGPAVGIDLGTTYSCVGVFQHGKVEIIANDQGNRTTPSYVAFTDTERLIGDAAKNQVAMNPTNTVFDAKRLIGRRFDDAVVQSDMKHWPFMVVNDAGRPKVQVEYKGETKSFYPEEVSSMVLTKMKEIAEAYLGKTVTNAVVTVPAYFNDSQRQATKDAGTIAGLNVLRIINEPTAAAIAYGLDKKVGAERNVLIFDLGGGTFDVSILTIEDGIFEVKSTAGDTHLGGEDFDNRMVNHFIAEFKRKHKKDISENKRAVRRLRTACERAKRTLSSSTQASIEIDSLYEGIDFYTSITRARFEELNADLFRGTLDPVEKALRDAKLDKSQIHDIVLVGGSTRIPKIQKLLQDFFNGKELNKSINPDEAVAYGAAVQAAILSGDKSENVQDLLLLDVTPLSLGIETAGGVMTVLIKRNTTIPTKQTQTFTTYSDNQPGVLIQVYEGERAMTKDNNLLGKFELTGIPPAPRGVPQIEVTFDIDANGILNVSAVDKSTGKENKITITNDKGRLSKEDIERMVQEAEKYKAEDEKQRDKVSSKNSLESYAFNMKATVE

binding result: binds
B1: Bovine auxilin (547–910) (domain or fragment, UniProt Q27974 547-910, looked up)
chain: PSGPTSTQSTPRRSATSTSASPTLRVGEGATFDPFGAPSKPSGQDLLGSFLNTASASSDPFLQPTRSPSPTVHASSTPAVNIQPDVSGAWDWHTKPGGFGMGSKSAATSPTGSSHGTPTHQNKPQTLDPFADLGTLGGSSFASKPSTPTGLGGGFPPLSSPQKASPQPMGGGWQQGGGYNWQQTQSKPQSSMPHSSPQNRPNYNVSFSSMPGGQNERGKAAANLEGKQKAADFEDLLSGQGFNAHKDKKGPRTIAEMRKEEMAKEMDPEKLKILEWIEGKERNIRALLSTMHTVLWAGETKWKPVGMADLVTPEQVKKVYRKAVLVVHPDKATGQPYEQYAKMIFMELNDAWSEFENQGQKPLY
